# Test system: Escherichia coli TOP10
# Test: shrunken log2 fold change of peptide-encoding DNA abundance (4.5 h post-induction vs induction); higher = less antimicrobial activity (less host growth inhibition)
# Details: time post-induction: 4.5 h; library: site-saturation at positions 5, 18, 19, 20
# 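Note: peptides expressed intracellularly from a pBAD plasmid library in pooled LB shake-flask culture, induced with 0.3% L-arabinose, DNA abundance read by NGS, three biological replicates, DESeq2 with apeglm shrinkage.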
row,Sequence,shrunken log2 fold change
1,RRIRNRPPRLPRPRPRPQTDPRP,-0.19
2,RRIRHRPPRLPRPRPRPKMDPRP,-0.014
3,RRIRHRPPRLPRPRPRPYSSPRP,-0.0579
4,RRIRDRPPRLPRPRPRPDKFPRP,0.0288
5,RRIRARPPRLPRPRPRPHHQPRP,-0.0146
6,RRIRMRPPRLPRPRPRPKIRPRP,-0.0101
7,RRIRDRPPRLPRPRPRPCWPPRP,0.073
8,RRIRGRPPRLPRPRPRPARTPRP,0.545
9,RRIRCRPPRLPRPRPRPITVPRP,-0.222
10,RRIRTRPPRLPRPRPRPTELPRP,-0.0329
11,RRIRPRPPRLPRPRPRPRTKPRP,0.518
12,RRIRSRPPRLPRPRPRPSFKPRP,-0.542
13,RRIRARPPRLPRPRPRPYKPPRP,-0.304
14,RRIRPRPPRLPRPRPRPDKHPRP,-0.376
15,RRIRTRPPRLPRPRPRPGCYPRP,-0.115
16,RRIRFRPPRLPRPRPRPDKDPRP,-0.393
17,RRIRWRPPRLPRPRPRPKFAPRP,0.453
18,RRIRNRPPRLPRPRPRPSPKPRP,0.191
19,RRIRCRPPRLPRPRPRPVWYPRP,-0.184
20,RRIRGRPPRLPRPRPRPCQWPRP,0.0251
21,RRIRMRPPRLPRPRPRPYLVPRP,-0.016
22,RRIRTRPPRLPRPRPRPNNYPRP,-0.754
23,RRIRWRPPRLPRPRPRPKYQPRP,-0.231
24,RRIRQRPPRLPRPRPRPGSVPRP,0.241
25,RRIRQRPPRLPRPRPRPYTWPRP,-0.51

row,Sequence,shrunken log2 fold change
1,RRIRSRPPRLPRPRPRPNWNPRP,-0.453
2,RRIRVRPPRLPRPRPRPFQRPRP,0.0825
3,RRIRRRPPRLPRPRPRPDFAPRP,0.39
4,RRIRIRPPRLPRPRPRPALTPRP,0.0227
5,RRIRGRPPRLPRPRPRPDTVPRP,-0.116
6,RRIRPRPPRLPRPRPRPPEMPRP,0.426
7,RRIRCRPPRLPRPRPRPFPKPRP,0.131
8,RRIRCRPPRLPRPRPRPFPYPRP,-0.645
9,RRIRHRPPRLPRPRPRPREPPRP,0.773
10,RRIRTRPPRLPRPRPRPTQWPRP,0.364
11,RRIRRRPPRLPRPRPRPHLAPRP,-0.0318
12,RRIRFRPPRLPRPRPRPDRYPRP,-0.0446
13,RRIRYRPPRLPRPRPRPYEVPRP,-0.343
14,RRIRIRPPRLPRPRPRPSQLPRP,-0.385
15,RRIRKRPPRLPRPRPRPYGMPRP,-0.284
16,RRIRRRPPRLPRPRPRPWVMPRP,-0.123
17,RRIRWRPPRLPRPRPRPKLLPRP,0.336
18,RRIRKRPPRLPRPRPRPQFHPRP,0.119
19,RRIRLRPPRLPRPRPRPPMGPRP,0.194
20,RRIRFRPPRLPRPRPRPECWPRP,0.675
21,RRIRWRPPRLPRPRPRPTICPRP,-0.106
22,RRIRDRPPRLPRPRPRPTATPRP,2.57
23,RRIRWRPPRLPRPRPRPDYWPRP,0.122
24,RRIRMRPPRLPRPRPRPVHIPRP,0.00544
25,RRIRSRPPRLPRPRPRPNICPRP,-0.0465

row,Sequence,shrunken log2 fold change
1,RRIRWRPPRLPRPRPRPVPIPRP,-0.0691
2,RRIRARPPRLPRPRPRPKINPRP,-0.0292
3,RRIRVRPPRLPRPRPRPGQQPRP,0.026
4,RRIRIRPPRLPRPRPRPMHSPRP,-0.0586
5,RRIRDRPPRLPRPRPRPRQKPRP,0.56
6,RRIRERPPRLPRPRPRPTDKPRP,-0.234
7,RRIRVRPPRLPRPRPRPTHRPRP,0.662
8,RRIRMRPPRLPRPRPRPNYSPRP,-0.416
9,RRIRQRPPRLPRPRPRPVHIPRP,-0.1
10,RRIRTRPPRLPRPRPRPGVKPRP,0.14
11,RRIRNRPPRLPRPRPRPGNYPRP,0.224
12,RRIRFRPPRLPRPRPRPHPEPRP,-0.00858
13,RRIRWRPPRLPRPRPRPCCWPRP,0.438
14,RRIRQRPPRLPRPRPRPERSPRP,0.0688
15,RRIRDRPPRLPRPRPRPNLAPRP,-0.0121
16,RRIRMRPPRLPRPRPRPSLCPRP,0.694
17,RRIRGRPPRLPRPRPRPRHPPRP,0.442
18,RRIRYRPPRLPRPRPRPDPMPRP,-0.0159
19,RRIRWRPPRLPRPRPRPFNVPRP,-0.114
20,RRIRLRPPRLPRPRPRPFLLPRP,-0.47
21,RRIRFRPPRLPRPRPRPDHMPRP,-0.585
22,RRIRERPPRLPRPRPRPGHGPRP,-0.281
23,RRIRVRPPRLPRPRPRPQESPRP,-0.0491
24,RRIRNRPPRLPRPRPRPLINPRP,-0.533
25,RRIRNRPPRLPRPRPRPTKRPRP,-0.301

row,Sequence,shrunken log2 fold change
1,RRIRGRPPRLPRPRPRPYGAPRP,-0.00762
2,RRIRWRPPRLPRPRPRPMEFPRP,-0.145
3,RRIRDRPPRLPRPRPRPVNNPRP,0.0566
4,RRIRSRPPRLPRPRPRPSNKPRP,-0.413
5,RRIRRRPPRLPRPRPRPRCKPRP,0.358
6,RRIRWRPPRLPRPRPRPRTYPRP,-0.331
7,RRIRDRPPRLPRPRPRPKSTPRP,-0.175
8,RRIRARPPRLPRPRPRPEGCPRP,1.31
9,RRIRIRPPRLPRPRPRPIDMPRP,-0.0681
10,RRIRSRPPRLPRPRPRPIDMPRP,-0.00448
11,RRIRGRPPRLPRPRPRPQLPPRP,0.183
12,RRIRERPPRLPRPRPRPKHAPRP,-0.0907
13,RRIRDRPPRLPRPRPRPAISPRP,-0.0409
14,RRIRTRPPRLPRPRPRPDGCPRP,0.127
15,RRIRERPPRLPRPRPRPDIVPRP,-0.158
16,RRIRERPPRLPRPRPRPNKAPRP,0.12
17,RRIRYRPPRLPRPRPRPWCQPRP,-0.243
18,RRIRRRPPRLPRPRPRPYCIPRP,-0.264
19,RRIRSRPPRLPRPRPRPEVEPRP,0.112
20,RRIRERPPRLPRPRPRPYNRPRP,-0.112
21,RRIRMRPPRLPRPRPRPLGHPRP,0.751
22,RRIRYRPPRLPRPRPRPFGAPRP,-0.391
23,RRIRFRPPRLPRPRPRPESGPRP,0.0504
24,RRIRCRPPRLPRPRPRPMVWPRP,0.412
25,RRIRARPPRLPRPRPRPPAHPRP,0.912

row,Sequence,shrunken log2 fold change
1,RRIRWRPPRLPRPRPRPTHDPRP,0.196
2,RRIRFRPPRLPRPRPRPVGKPRP,0.13
3,RRIRDRPPRLPRPRPRPQHAPRP,0.044
4,RRIRDRPPRLPRPRPRPPRHPRP,0.377
5,RRIRIRPPRLPRPRPRPSTYPRP,-1.63
6,RRIRQRPPRLPRPRPRPYQRPRP,-0.52
7,RRIRQRPPRLPRPRPRPVLCPRP,-0.238
8,RRIRLRPPRLPRPRPRPVYYPRP,-0.633
9,RRIRFRPPRLPRPRPRPEKVPRP,-0.0394
10,RRIRPRPPRLPRPRPRPFQYPRP,-0.179
11,RRIRQRPPRLPRPRPRPQYKPRP,-0.314
12,RRIRPRPPRLPRPRPRPMRYPRP,0.0689
13,RRIRKRPPRLPRPRPRPNWSPRP,0.139
14,RRIRARPPRLPRPRPRPMMGPRP,0.082
15,RRIRKRPPRLPRPRPRPGYQPRP,0.0954
16,RRIRKRPPRLPRPRPRPWHEPRP,-0.0363
17,RRIRWRPPRLPRPRPRPDIEPRP,-0.0323
18,RRIRYRPPRLPRPRPRPICTPRP,-0.376
19,RRIRARPPRLPRPRPRPICEPRP,0.512
20,RRIRKRPPRLPRPRPRPENQPRP,0.156
21,RRIRVRPPRLPRPRPRPFLHPRP,-0.13
22,RRIRVRPPRLPRPRPRPPPRPRP,1.03
23,RRIRERPPRLPRPRPRPYRAPRP,0.0532
24,RRIRCRPPRLPRPRPRPKKRPRP,0.156
25,RRIRNRPPRLPRPRPRPTHGPRP,-0.0213

row,Sequence,shrunken log2 fold change
1,RRIRFRPPRLPRPRPRPMDDPRP,-0.182
2,RRIRDRPPRLPRPRPRPEWQPRP,0.0508
3,RRIRFRPPRLPRPRPRPNSAPRP,-0.603
4,RRIRYRPPRLPRPRPRPSEAPRP,-0.096
5,RRIRFRPPRLPRPRPRPLGCPRP,0.121
6,RRIRMRPPRLPRPRPRPADWPRP,0.905
7,RRIRLRPPRLPRPRPRPEEMPRP,0.034
8,RRIRFRPPRLPRPRPRPCANPRP,0.133
9,RRIRKRPPRLPRPRPRPNEYPRP,0.0869
10,RRIRARPPRLPRPRPRPDTYPRP,-0.11
11,RRIRSRPPRLPRPRPRPWLQPRP,-0.0695
12,RRIRWRPPRLPRPRPRPDTRPRP,-0.0523
13,RRIRMRPPRLPRPRPRPTISPRP,0.0688
14,RRIRQRPPRLPRPRPRPWRNPRP,-0.00208
15,RRIRTRPPRLPRPRPRPVICPRP,-0.157
16,RRIRPRPPRLPRPRPRPQEPPRP,0.265
17,RRIRHRPPRLPRPRPRPVPDPRP,-0.526
18,RRIRLRPPRLPRPRPRPSQKPRP,0.00285
19,RRIRLRPPRLPRPRPRPIGHPRP,-0.212
20,RRIRVRPPRLPRPRPRPAGIPRP,0.165
21,RRIRYRPPRLPRPRPRPNHDPRP,-0.433
22,RRIRFRPPRLPRPRPRPWVWPRP,0.212
23,RRIRCRPPRLPRPRPRPCLDPRP,0.11
24,RRIRFRPPRLPRPRPRPVGGPRP,0.405
25,RRIRTRPPRLPRPRPRPDGLPRP,0.0665
